Assay results published in patent US20260049113A1.
Each block holds one binder with its values, some of them ahead of it.

Target: T1, Full length human midkine protein (human) (UniProt P21741)
T1 sequence: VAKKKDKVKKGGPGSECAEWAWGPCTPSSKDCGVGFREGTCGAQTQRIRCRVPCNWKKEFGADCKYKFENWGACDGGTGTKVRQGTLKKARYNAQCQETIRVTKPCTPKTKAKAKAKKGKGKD
Assay: cell-based or functional assay

- Total Area (area under the curve of wound width, Cell Migration Assay): 768
B1: Δ34 MDK (truncated human midkine lacking 34 amino acids from the C-terminus) (ligand)
chain: VAKKKDKVKKGGPGSECAEWAWGPCTPSSKDCGVGFREGTCGAQTQRIRCRVPCNWKKEFGADCKYKFENWGACDGGTGTKVRQGTLKK

- Total Area (area under the curve of wound width, Cell Migration Assay): 1040
B4: Δ25 MDK (truncated human midkine lacking 25 amino acids from the C-terminus) (ligand)
chain: VAKKKDKVKKGGPGSECAEWAWGPCTPSSKDCGVGFREGTCGAQTQRIRCRVPCNWKKEFGADCKYKFENWGACDGGTGTKVRQGTLKKARYNAQCQE

- Total Area (area under the curve of wound width, Cell Migration Assay): 924
B5: Δ41 MDK (truncated human midkine lacking 41 amino acids from the C-terminus) (ligand)
chain: VAKKKDKVKKGGPGSECAEWAWGPCTPSSKDCGVGFREGTCGAQTQRIRCRVPCNWKKEFGADCKYKFENWGACDGGTGTKV

Further lines, the binder ahead of its results:

B2: Δ58 MDK (truncated human midkine lacking 58 amino acids from the C-terminus) (ligand)
chain: VAKKKDKVKKGGPGSECAEWAWGPCTPSSKDCGVGFREGTCGAQTQRIRCRVPCNWKKEFGADCK
- Total Area (area under the curve of wound width, Cell Migration Assay): 1990

B3: Δ14 MDK (truncated human midkine lacking 14 amino acids from the C-terminus) (ligand)
chain: VAKKKDKVKKGGPGSECAEWAWGPCTPSSKDCGVGFREGTCGAQTQRIRCRVPCNWKKEFGADCKYKFENWGACDGGTGTKVRQGTLKKARYNAQCQETIRVTKPCTPK
- Total Area (area under the curve of wound width, Cell Migration Assay): 1710
